# Experimental data from publication PMC12412624, “Engineered Cas12j‐8 is a Versatile Platform for Multiplexed Genome Modulation in Mammalian Cells”.
# Where a chain is given by its changes, count along the chain named.
# Key:
# [1] = system: T1, dCas12j-8 D495R D495R;D369A;E567A;D658A (bacteriophage (metagenome)); settings: HEK293T cells; panel 1c (compare within a panel only); scale: mean GFP / mean GFP of wild type, printed, no background subtraction
# T1 sequence: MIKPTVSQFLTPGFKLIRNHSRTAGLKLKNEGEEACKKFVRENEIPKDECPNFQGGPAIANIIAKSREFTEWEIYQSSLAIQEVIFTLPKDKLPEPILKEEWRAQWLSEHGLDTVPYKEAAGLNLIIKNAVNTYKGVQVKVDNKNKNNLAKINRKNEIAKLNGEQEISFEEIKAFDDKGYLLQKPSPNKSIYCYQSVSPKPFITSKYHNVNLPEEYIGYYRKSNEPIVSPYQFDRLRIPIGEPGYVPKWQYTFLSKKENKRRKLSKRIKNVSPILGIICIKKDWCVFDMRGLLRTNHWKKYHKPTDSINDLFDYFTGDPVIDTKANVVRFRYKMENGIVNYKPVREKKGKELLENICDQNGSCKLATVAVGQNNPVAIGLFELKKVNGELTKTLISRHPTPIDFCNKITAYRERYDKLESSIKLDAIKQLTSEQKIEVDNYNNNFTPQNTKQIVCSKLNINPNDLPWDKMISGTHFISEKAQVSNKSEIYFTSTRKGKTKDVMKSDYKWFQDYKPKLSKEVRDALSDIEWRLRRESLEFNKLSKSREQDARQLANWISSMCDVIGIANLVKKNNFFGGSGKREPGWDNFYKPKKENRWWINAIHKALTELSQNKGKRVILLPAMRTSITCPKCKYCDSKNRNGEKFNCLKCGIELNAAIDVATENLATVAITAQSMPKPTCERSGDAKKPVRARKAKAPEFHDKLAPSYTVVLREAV
# [2] = system: T2, dCas12j-8 E258R+D313R+E547R E258R;D313R;E547R;D369A;E567A;D658A (bacteriophage (metagenome)); settings: HEK293T cells; panel 1e (compare within a panel only); scale: mean GFP / mean GFP of wild type, printed, no background subtraction
# T2 sequence: T1 sequence with E258R, D313R, R495D, E547R
# [3] = system: T3, dCas12j-8 E242R E242R;D369A;E567A;D658A (bacteriophage (metagenome)); settings: HEK293T cells; panel 1c (compare within a panel only); scale: mean GFP / mean GFP of wild type, printed, no background subtraction
# T3 sequence: T1 sequence with E242R, R495D
sequence,measurement,setting,value
CUUUCAAGACUAAUAGAUUGCUCCUUACGAGGAGACACUCCCUAUCAGUGAUAGAG / TTNACTCCCTATCAGTGATAGAG / CTCTATCACTGATAGGGAGTNAA [TetO],binding signal,[1],1.18
same,binding signal,[2],3.99
same,binding signal,[3],0.683
